Results reported in PMC10513939, “Phylogenetic and functional analysis of cyanobacterial Cytochrome c 6-like proteins” (Frontiers in Plant Science, 2023).

T1: Cytochrome f (soluble form, subunit of the cytochrome b 6 f complex) (Nostoc sp. PCC 7119, UniProt Q93SW9 45-298, heme group; reduced for ITC)
T1 chain: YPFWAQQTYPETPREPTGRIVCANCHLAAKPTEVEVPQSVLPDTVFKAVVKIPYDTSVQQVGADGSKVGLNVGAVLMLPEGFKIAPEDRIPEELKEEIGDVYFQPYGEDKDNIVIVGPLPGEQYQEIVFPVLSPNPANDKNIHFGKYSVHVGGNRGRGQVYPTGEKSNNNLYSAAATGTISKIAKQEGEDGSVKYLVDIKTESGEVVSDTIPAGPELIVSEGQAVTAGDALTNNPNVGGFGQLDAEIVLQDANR

T2: Cytochrome f (soluble form, subunit of the cytochrome b 6 f complex) (Nostoc sp. PCC 7119, UniProt Q93SW9 45-298, heme group; reduced for ITC)
T2 construct: Cytochrome f, subunit of the cytochrome b6f complex, soluble form heterologously expressed; construct as described in earlier work (Albarran et al., 2005); PCC 7120; Soluble form: as far as I recall, the lumenal domain without the C-terminal membrane anchor and without the signal peptide; also called Cyt f; soluble Cyt f; source: E. coli co-transformed with pEC86, extracted from the periplasmic …
T2 sequence (looked up): T1 chain

B1: Cytochrome c 6BC (natural protein)
chain: ENTINGEQIFSVHCAGCHINGSNIIRRGKNLQKKTLKKYGMDSLEAIEAIVTNGKNNMSAYKDRLSEQEIQDVAAYVLEQAEKGWR
modifications: heme group; oxidised for ITC
B2: Cytochrome c 6D (natural protein)
chain: AELPTGAKIFNNNCASCHIGGGNILISEKTLKKEALLKYLEDYETNSIQAIIHQIQYGKNAMPAFKDKLSTEEILEVAAYIFQKAEKDWSNLEKEG
modifications: heme group; oxidised for ITC
B3: Cytochrome c 6 (natural protein, Nostoc sp. PCC 7119, UniProt P0A3X8 26-111, looked up)
chain: ADSVNGAKIFSANCASCHAGGKNLVQAQKTLKKADLEKYGMYSAEAIIAQVTNGKNAMPAFKGRLKPEQIEDVAAYVLGKADADWK
modifications: heme group; oxidised for ITC
notes: Cytochrome c6 (petJ) of Nostoc sp; PCC 7119; also called Cyt c 6; source: E. coli co-transformed with pEC86, extracted from the periplasmic fraction, purified (ion exchange chromatography)

Legend:
[1] = target: T1, Cytochrome f (soluble form, subunit of …); assay: ITC
[2] = target: T1, Cytochrome f (soluble form, subunit of …); assay: ITC
[3] = target: Cytochrome f (soluble form, subunit of the cytochrome b 6 f complex) (Nostoc sp. PCC 7119) (UniProt Q93SW9); assay: ITC; oxidised Cyt c 6, c 6BC or c 6D (400 uM) injected (2 uL injections) into reduced Cyt f (40 uM) in the cell; 5 mM phosphate buffer pH 7.5, 0.02% (w/v) Triton X-100, 25 °C; single binding site model
[4] = target: T2, Cytochrome f (soluble form, subunit of …); assay: as above; conditions: both partners purified

Binder | Kd [1] [µM] | Ka [2] [M⁻¹] | stoichiometry N [3] | fold higher KA and fold lower KD than for Cyt c 6 and Cyt c 6BC with Cyt f [3] [fold] | stoichiometry N [4]
B1 | 11 | 89000 | 1 | – | –
B2 | 2 | 500000 | 1 | 6 | –
B3 | 13 | 78000 | – | – | 1
